According to patent publication US11781164B2, “Demethylation of reticuline and derivatives thereof with fungal cytochrome P450” (priority 2017, dated 2023):

How the values were obtained:
codeine = experiment: In vitro N-demethylation of codeine by mammalian cytochrome P450s in crude yeast cell lysates; settings: crude cell extract with human CPR and cytochrome b5; 0.2 mM substrate, pH 7, 30° C., approximately 20 hours; compared to negative control strain without cytochrome P450s
thebaine [1] = experiment: In vitro N-demethylation of thebaine by mammalian cytochrome P450s in crude yeast cell lysates; settings: crude cell extract with human CPR and cytochrome b5; 0.2 mM substrate, pH 7, 30° C., approximately 20 hours; compared to negative control strain without P450s
oripavine [2] = experiment: In vitro N-demethylation of oripavine by mammalian cytochrome P450s in crude yeast cell lysates; settings: crude cell extract with human CPR and cytochrome b5; 0.2 mM substrate, pH 7, 30° C., approximately 20 hours; compared to negative control strain without cytochrome P450s
salutaridine = experiment: In vitro N-demethylation of salutaridine by mammalian cytochrome P450s in crude yeast cell lysates; settings: crude cell extract with human CPR and cytochrome b5; 0.2 mM substrate, pH 7, 30° C., approximately 20 hours; compared to negative control strain without cytochrome P450s
thebaine [3] = experiment: Bioconversion of thebaine (N-demethylation to northebaine) by S. cerevisiae expressing cytochrome P450s and CPRs, LC-MS; settings: for activity towards thebaine, converting it to northebaine: co-expressed with CPR_DN5866_c0_g1_i1_Cd9, CPR_DN10898_c0_g1_i1_1A or Cel_CPR_co (at least one of the tested CPRs)
oripavine [4] = experiment: Bioconversion of oripavine (N-demethylation to nororipavine) by S. cerevisiae expressing cytochrome P450s and CPRs, LC-MS; settings: pH 7, 72 h; for nororipavine production when oripavine was administered: co-expressed with CPR_DN5866_c0_g1_i1_Cd9, CPR_DN10898_c0_g1_i1_1A or Cel_CPR_co
thebaine [5] = experiment: In planta conversion of thebaine by transient expression of demethylases and CPRs in Nicotiana benthamiana leaves; settings: co-expressed with CPR_DN10898_c0_g1_i1_co or Cel_CPR_co; leaves re-infiltrated with 0.5 mM thebaine after 4 days, measured 1 day after

Hs_CYP3A4: Cytochrome P450 3A4 (P08684), Homo sapiens
in vitro N-demethylation activity on codeine (codeine): detected | in vitro N-demethylation activity on Thebaine (thebaine [1]): detected | in vitro N-demethylation activity on oripavine (oripavine [2]): detected | in vitro N-demethylation activity on salutaridine (salutaridine): detected

B1: P450_DN15259_c0_g1_i7_A: native cytochrome P450 clone from Thamnostylum piriforme (plasmid pEV31541) (protein)
chain: MDNKAILRQAVYSYRYHIGIAAAVAIVCQQIYSRVFRVPKNLRHIPAISYWSQMKALLKKEAITPRTKRLVYPLLSKANGLYLNRMPFDWTVYVANPMIAKTVLFKPEFATKMSLIGSFSDDSAVLQFVGKDNIAVSNGHQWKKQRKIMNPAFHRSMPVALFASLMPKVFCMIDETQENGDSVGAIQLMQALTLEALGKAVFGFDFGGLDDKNSVWVKTYNEVFKAFTDFTVFLPRLNAFLRRVSPPHRSRHREMLKLIGLLDEMVDKKRQALLDAKNKSVEKVPEHEKDLLTLMLEAEMDGEGVWEKEELRHNIGILFVAGHDTTANSLAFAVYNLAVNKDVQDKARKEIIDLLGDEPKDVAPTLDDCKHMDYIDMIIKETLRMNAPANDLLARIASEDLELGGVLIPKGTMVSVDFHALHLHPDLWEDSERFNPQRFQDNGEHSKHEGVTWVPFSGGSRQCIGINFSMMEQRVALSTLLRKYEWELPADSIHRNGLVMDQPFSFAPSSLKIKFKKRY
modifications: Thamnostylum piriforme
thebaine N-demethylation (northebaine), screening of T. piriforme P450 candidates (thebaine [3]; 0.1 mM thebaine, non-buffered SC-His-Leu-Ura, with CPRs from C. elegans, G. fujikuroi and S. cerevisiae, 72 h, 30° C.): identified as a thebaine N-demethylase | increase in northebaine titers on increasing thebaine concentration to 0.5 mM (thebaine [3]; 0.1 vs 0.5 mM thebaine, pH 7, 72 h, with Cel_CPR_co, CPR_DN5866_c0_g1_Cd9 or CPR_DN10898_c0_g1_1A): 50% | oripavine N-demethylation (nororipavine) (oripavine [4]; detected only when feeding 0.5 mM oripavine, with Cel_CPR_co, CPR_DN5866_c0_g1_Cd9 or CPR_DN10898_c0_g1_1A): able to N-demethylate oripavine | nororipavine titers lower than those of northebaine (oripavine [4]; thebaine or oripavine fed): 20 fold

B2: P450_DN5615_c2 g1_i9_co: codon-optimized cytochrome P450 candidate from Cunninghamella echinulata (protein, listed as Cunninghamella echinulata)
chain: MSQFISTISQYWDVNNFIDQQAWSRFYETYLLKYTDSKAKRLTIGVSVSLLLLGYGIKRLLTPPKHLRHIKHASFLRFTYNFVIKGVTPKEMHTTVSKKIVEENNGFYLQLERTGWVVYVANPEAVKQVLLKSDIFPKMDFSKLASEEGSYFEKFIGFKNILMTTGSEWLKHRKLTNPAFHRSLPAKLFGETAQGLFKIWDNEYNDKPFEVNIHNMNERITLDIIGKAGFAFDFNAVADEKSPWKKTYDIINTAASDPLFFMFPILENKLLWLFPKRQESFKKLDEWKAMLTSVIENKRRLLKDNIDQGVEEAEKDLLTLMIESEFRGEGVLTKEELIGNLTVFFLAGHDTTSFALTSAIYYMARYPEIQEKARQEVNSILCPNGEPNEGILPTIEDTKKLVYLNQIMKESMRIGNPVLFLLSPRQATKDFNLNGTFIPKGTQVNINIHDLHHSSNVWDDPDTFNPDRFAPGGEADKKTGIAWVPFSNGSRQCLGMNFSLLEQRVILSCLLRKYEWTLPENSIHKNDMISKFDLIPSPIDMKIRFERRY
modifications: codon-optimized
demethylase activity towards thebaine (northebaine), C. echinulata P450 candidates (thebaine [3]; 0.5 mM thebaine, pH 7, 72 h, co-expressed with Cel_CPR): displayed demethylase activity towards thebaine and oripavine | demethylase activity towards oripavine (nororipavine), C. echinulata P450 candidates (oripavine [4]; 0.5 mM oripavine, co-expressed with Cel_CPR): displayed demethylase activity towards thebaine and oripavine

B3: Ps_CODM_co: O-demethylase D4N502 from Papaver somniferum, codon optimized; positive control (protein, listed as Papaver somniferum)
chain: METPILIKLGNGLSIPSVQELAKLTLAEIPSRYTCTGESPLNNIGASVTDDETVPVIDLQNLLSPEPVVGKLELDKLHSACKEWGFFQLVNHGVDALLMDNIKSEIKGFFNLPMNEKTKYGQQDGDFEGFGQPYIESEDQRLDWTEVFSMLSLPLHLRKPHLFPELPLPFRETLESYLSKMKKLSTVVFEMLEKSLQLVEIKGMTDLFEDGLQTMRMNYYPPCPRPELVLGLTSHSDFSGLTILLQLNEVEGLQIRKEERWISIKPLPDAFIVNVGDILEIMTNGIYRSVEHRAVVNSTKERLSIATFHDSKLESEIGPISSLVTPETPALFKRGRYEDILKENLSRKLDGKSFLDYMRM
modifications: codon-optimized
conversion of thebaine into oripavine in N. benthamiana leaves vs negative control (thebaine [5]): capable of converting thebaine into oripavine | northebaine levels in N. benthamiana leaves vs negative P19 control (thebaine [5]): not apparent

B4: Ar_ORZ22410_co: codon-optimized putative cytochrome P450 A0A1X2IUG5 from Absidia repens (protein, listed as Absidia repens)
chain: MNKLFPVGTSNKKKAVLLSLGATVALICRAIYRIYYVPRSLRHIPSVGYFRLIRSILRREDATTRARTVYGPAIKKGNGIYLANFPITWSVFVSSPIAAKSVLMKTDNFPKSMEIFHALGKENPVVRFFGIDNVAIVNGEKWKKQRKVMNPAFHRAMPVQMFGRLMLKGFKNIEKQDYQVPILDFFQRLTLDALGIAGFGFDFHSVDDPESIWTKTYENVRLGLRSPFSFLFPSMDWLLKYIIPGRKELDKSVDKLNALLMSMAQERRLQVRASIDDNVPDSEKDLLTLMLEAELRGEGTASDEQLRSNLAVFFLAGHETTANTMSFCLYNLAMNKEVQSKARQEVLTVLGDEPVDILPQIDELRQMPYIDMVLKENLRRFGPASMLIARKSQEDFDLNGVFIPKNTPVVVETHALHHNPDVWKNPEQFDPERFAPGGEHETCHEGMAWLPFSSGSRGCLGMNFSLAEQRTFLVMLLRKYEWELPEDSIHRNGVKIQNFQNAAPESLEIKFSSRY
activity towards thebaine, converting it to northebaine (thebaine [3]; 0.5 mM thebaine, pH 7, 72 h): displayed activity towards thebaine | nororipavine production when oripavine was administered (oripavine [4]; 0.5 mM oripavine): capable of producing nororipavine

B5: Hs_CYP3A5: Cytochrome P450 3A5 (P20815), Homo sapiens (protein, UniProt P20815 1-502, looked up)
Cytochrome P450 3A5: MDLIPNLAVETWLLLAVSLVLLYLYGTRTHGLFKRLGIPGPTPLPLLGNVLSYRQGLWKFDTECYKKYGKMWGTYEGQLPVLAITDPDVIRTVLVKECYSVFTNRRSLGPVGFMKSAISLAEDEEWKRIRSLLSPTFTSGKLKEMFPIIAQYGDVLVRNLRREAEKGKPVTLKDIFGAYSMDVITGTSFGVNIDSLNNPQDPFVESTKKFLKFGFLDPLFLSIILFPFLTPVFEALNVSLFPKDTINFLSKSVNRMKKSRLNDKQKHRLDFLQLMIDSQNSKETESHKALSDLELAAQSIIFIFAGYETTSSVLSFTLYELATHPDVQQKLQKEIDAVLPNKAPPTYDAVVQMEYLDMVVNETLRLFPVAIRLERTCKKDVEINGVFIPKGSMVVIPTYALHHDPKYWTEPEEFRPERFSKKKDSIDPYIYTPFGTGPRNCIGMRFALMNMKLALIRVLQNFSFKPCKETQIPLKLDTQGLLQPEKPIVLKVDSRDGTLSGE
in vitro N-demethylation activity on codeine (codeine): detected | in vitro N-demethylation activity on Thebaine (thebaine [1]): detected | in vitro N-demethylation activity on oripavine (oripavine [2]): detected | in vitro N-demethylation activity on salutaridine (salutaridine): detected

B6: LCOR_01865_co: codon-optimized putative cytochrome P450 A0A068RKI7 from Lichtheimia corymbifera (protein, listed as Lichtheimia corymbifera)
chain: MTEIKDHIYRYRHYIGVAAAVLLVCQQVYHRIFRIPKNLRHLPAIPYGKQLKALQSQENLISRTQRLVFPLLPKAHGVYLNRMPFQWTIYVADPEIARIVFFKPEFANKTSSVLDSIDQNTTLIEFVGNDNVSIVNGHHWKDQRKIMNPAFHRATPVGMFGSLMPKVFRLVEEQPTVPVLELMQKLTLDALGKSVFGFDFGGLDDPDSVWVKTYRLLFDGFTNVIPLVFPRLDGLYRYFSAKRRAQHDAVYKLIDLLDGVADKKRSMLQDDSNSHNDVPEHEKDLLQLMLEAELRGEGNWTKKELRHNMAIFFVAGHDTTSHALTFCLYLLAMNQDIQKKAREEILRVLGDEPKDVFPTLEDCKKLDYLDMVIKESMRIYPPANDILARDVHEDLNVKGIFIPKGAMVSVDIQALHHRPDLWHEPEKFNPDRFLPGGEHDSHEGIAYAPFSSGARQCIALKFSIMQQRVVLAMLLRKFEWELPKESKHKDGIQFEIPFNLAPKDLELIFHKRY
modifications: codon-optimized
activity towards thebaine, converting it to northebaine (thebaine [3]; 0.5 mM thebaine, pH 7, 72 h): displayed activity towards thebaine | nororipavine production when oripavine was administered (oripavine [4]; 0.5 mM oripavine): capable of producing nororipavine
